B1: Sialidase, P29768 (parent)
chain: MTVEKSVVFKAEGEHFTDQKGNTIVGSGSGGTTKYFRIPAMCTTSKGTIVVFADARHNTASDQSFIDTAAARSTDGGKTWNKKIAIYNDRVNSKLSRVMDPTCIVANIQGRETILVMVGKWNNNDKTWGAYRDKAPDTDWDLVLYKSTDDGVTFSKVETNIHDIVTKNGTISAMLGGVGSGLQLNDGKLVFPVQMVRTKNITTVLNTSFIYSTDGITWSLPSGYCEGFGSENNIIEFNASLVNNIRNSGLRRSFETKDFGKTWTEFPPMDKKVDNRNHGVQGSTITIPSGNKLVAAHSSAQNKNNDYTRSDISLYAHNLYSGEVKLIDDFYPKVGNASGAGYSCLSYRKNVDKETLYVVYEANGSIEFQDLSRHLPVIKSYN

Variants of: B1
Settings: Salmonella typhimurium (strain LT2 / SGSC1412 / ATCC 700720), pH 7, CD, Potassium phosphate 10 mM, reversible: yes, structure 1DIL, whole UniProt chain shown; for ddG of mutation (higher = less stable) / denaturant midpoint (higher = more stable) / unfolding free energy: 25 °C, GdnHCl; for Tm / change of melting temperature, mutant - wild type (higher = more stable): Thermal

Variant	ddG of mutation (higher = less stable) [kcal/mol]	denaturant midpoint (higher = more stable) [M]	unfolding free energy [kcal/mol]	Tm [°C]	change of melting temperature, mutant - wild type (higher = more stable) [°C]
A69V	-0.62	1.42	4.86	60	3
A53L	-0.81	1.64	5.05	62	5

Source: FireProtDB (doi:10.1093/protein/14.11.891)
